One experiment concerns the target T1, Human C3 (Homo sapiens, UniProt P01024).
T1 construct: purchased Complement tech A113c
The experiment in a line: Affinity measurement by surface plasmon resonance with immobilized C3. The following applies: SPR, immobilized human C3, 25° C., 1:1 Langmuir binding model, n=>2. The procedure: (§1) Surface plasmon resonance (SPR) was used to characterize peptides with respect to their binding affinity (Kd) for C3.
For interaction experiments, a multi-cycle experiment approach was used and performed using a BiacoreX100™ instrument (GE Healthcare) at 25° C. Peptides were injected in increasing concentration series (5 different concentrations and buffer reference) for 180 seconds at a flow rate of 30 μL/min in a buffer consisting of 50 mM Tris buffer at pH 7.4, with 150 mM NaCl and 0.05% Tween20. This was followed by a dissociation period for 10 min. The C3 surface was regenerated between runs by two consecutive injections of 3 M MgCl2 each for 45 seconds.
(§2) Sensorgrams were double-referenced (reference surface, blanks) prior to analysis of the kinetic profiles by globally fitting data to a 1:1 Langmuir binding model to obtain association and dissociation rates for calculation of the equilibrium dissociation constant Kd (Table 3). Each peptide was tested at in at least 2 independent experiments.

Experiment [1] deals with classical complement pathway. The experiment in a line: In vitro haemolysis assay (inhibition of classical complement pathway). It is filed as cell-based. The following applies: human serum, sensitized sheep RBC, 30 minutes at 37° C., absorbance at 405 nm, n=>2; read-out: IC50, inhibition of hemolysis. Here is the method:
The in vitro effect of some of the compounds described herein was assessed by measuring their inhibitory effect of the classical complement pathway in a haemolysis assay.
Briefly, compounds described herein and reference compounds were dissolved in DMSO and diluted in Tris/Casein Assay Buffer (10 mM Tris, 145 mM NaCl, 0.5 mM MgCl2, 0.15 mM CaCl2, and 0.1% W/V casein, adjusted to pH 7.4) as 9-point serial dilutions in a 96-well plate. Sensitized sheep red blood cells (RBC) coated with rabbit anti-sheep erythrocyte antiserum (Complement Technology, Inc., TX, USA) were washed in Tris/asein Assay Buffer. 50 μL from each well of diluted compound was added to a 96-well plate containing 50 μL diluted human serum (Complement Technology, Inc., TX, USA) and incubated for 15 minutes at room temperature. The serum dilution factor was optimized for every serum batch to obtain 70-90% of maximal haemolysis using the protocol. Then 50 μL sensitized sheep RBCs were added to all wells ([…]).
After 30 minutes of incubation at 37° C. with gentle agitation, the reaction was stopped by addition of 50 μL Tris STOP Buffer per well (10 mM EDTA, 10 mM Tris, 145 mM NaCl adjusted to pH 7.4). The RBCs were then removed by centrifugation and the resulting supernatant measured for hemolysis by absorbance at 405 nm.
The response was normalized relative to a positive and negative control (vehicle) to calculate the IC50 (nM) from the concentration response curve using the 4-parameter logistic (4PL) nonlinear model for curve fitting (Table 2). All values are based on n=>2 independent determinations.

In experiment [2] the target is T2, Human C3 (Complement tech cat #A113c) (human, UniProt P01024 23-1663). The experiment in a line: cell-based or functional assay.
T2 sequence (P01024 23-1663 limits assumed): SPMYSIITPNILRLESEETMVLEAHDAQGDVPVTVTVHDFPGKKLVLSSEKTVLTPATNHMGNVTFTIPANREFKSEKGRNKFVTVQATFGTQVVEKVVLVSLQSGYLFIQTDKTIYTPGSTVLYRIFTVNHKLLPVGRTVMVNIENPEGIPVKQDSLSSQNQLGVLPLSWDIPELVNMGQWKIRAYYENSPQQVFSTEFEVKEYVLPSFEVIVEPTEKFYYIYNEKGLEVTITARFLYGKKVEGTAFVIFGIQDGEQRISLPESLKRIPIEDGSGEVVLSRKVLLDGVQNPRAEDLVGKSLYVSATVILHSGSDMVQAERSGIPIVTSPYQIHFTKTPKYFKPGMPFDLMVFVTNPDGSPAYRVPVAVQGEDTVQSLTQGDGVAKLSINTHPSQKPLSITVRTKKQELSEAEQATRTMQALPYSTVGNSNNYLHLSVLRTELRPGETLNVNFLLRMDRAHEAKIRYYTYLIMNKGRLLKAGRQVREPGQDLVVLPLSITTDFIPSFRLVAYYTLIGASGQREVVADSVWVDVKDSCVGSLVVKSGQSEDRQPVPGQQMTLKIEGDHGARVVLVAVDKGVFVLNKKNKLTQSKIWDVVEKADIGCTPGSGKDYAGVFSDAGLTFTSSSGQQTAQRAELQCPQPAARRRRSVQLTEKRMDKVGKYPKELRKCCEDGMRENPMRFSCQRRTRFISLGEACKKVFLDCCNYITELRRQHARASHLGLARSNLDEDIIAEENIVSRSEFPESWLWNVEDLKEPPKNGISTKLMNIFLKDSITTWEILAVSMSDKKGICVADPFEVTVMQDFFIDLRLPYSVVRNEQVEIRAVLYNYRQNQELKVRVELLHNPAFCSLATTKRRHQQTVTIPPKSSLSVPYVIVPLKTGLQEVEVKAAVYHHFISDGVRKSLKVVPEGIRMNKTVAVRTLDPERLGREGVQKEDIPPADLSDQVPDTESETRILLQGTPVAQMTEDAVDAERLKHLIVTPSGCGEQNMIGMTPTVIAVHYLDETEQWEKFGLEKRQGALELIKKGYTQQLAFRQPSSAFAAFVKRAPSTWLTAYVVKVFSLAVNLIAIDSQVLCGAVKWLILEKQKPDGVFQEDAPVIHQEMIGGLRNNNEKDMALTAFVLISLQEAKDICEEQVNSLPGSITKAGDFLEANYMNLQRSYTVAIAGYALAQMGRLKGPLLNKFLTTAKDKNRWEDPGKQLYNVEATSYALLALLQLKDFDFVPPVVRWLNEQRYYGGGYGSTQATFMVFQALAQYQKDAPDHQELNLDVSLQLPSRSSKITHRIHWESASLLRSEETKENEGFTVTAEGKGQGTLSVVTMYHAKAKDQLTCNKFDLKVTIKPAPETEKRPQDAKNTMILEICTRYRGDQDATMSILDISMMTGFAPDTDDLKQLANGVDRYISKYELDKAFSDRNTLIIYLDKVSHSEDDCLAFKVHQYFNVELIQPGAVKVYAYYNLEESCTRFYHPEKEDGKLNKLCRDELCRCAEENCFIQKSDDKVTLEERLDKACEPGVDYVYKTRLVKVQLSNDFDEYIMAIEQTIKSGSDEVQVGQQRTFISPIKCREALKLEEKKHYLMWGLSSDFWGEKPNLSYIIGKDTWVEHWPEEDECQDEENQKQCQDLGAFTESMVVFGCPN
Experiment [3] concerns the target T2, Human C3 (Complement tech cat #A113c). The experiment in a line: SPR (Biacore X100, 25 C), human C3 amine-coupled on CM5 chip, peptide as analyte, 1:1 Langmuir fit. Here is the method: as §1
For interaction experiments, a multi-cycle experiment approach was used and performed using a BiacoreX100™ instrument (GE Healthcare) at 25° C. Peptides were injected in increasing concentration series (5 different concentrations and buffer reference) for 180 seconds at a flow rate of 30 μL/min in a buffer consisting of 50 mM Tris buffer at pH 7.4, with 150 mM NaCl and 0.05% Tween20. This was followed by a dissociation period for 10 min.
as §2
Background: SPR reads the build-up and loss of mass on a sensor chip optically.

This is an account of results in patent publication US20230287051A1, “INHIBITORS OF COMPLEMENT FACTOR C3 AND THEIR MEDICAL USES” (ZP SPV 3 K/S, priority 2020, published 2023).

Numbered stars: 1 amine (or outer) side, 2 acyl side, 3 side chain; on linkers, the order of the positions; unused ones are H or OH. Bridge positions count the residues as written; N and C are the ends. Square brackets hold non-standard residues; d marks the D form. Side chains are listed from the residue outwards. Peptide text beside a SMILES is read from it. * marks the point of attachment. Trp(1-Me) = Cn1cc(C[C@H](N)C(=O)O)c2ccccc21; C18 diacid = O=C(O)CCCCCCCCCCCCCCCCC(=O)*; C16 diacid = O=C(O)CCCCCCCCCCCCCCC(=O)*; γGlu = O=C(O)[C@H](CCC(=O)[*:2])N[*:1]; AEEA = NCCOCCOCC(=O)O; CH2 = C([*:1])[*:2]; Sar = CNCC(=O)O

In general, Kd refers to the constant that tells how readily two partners part at equilibrium. A higher Kd goes with lower affinity. Usually IC50 stands for the concentration that gives 50% inhibition. The molecule `CC[C@H](C)[C@@H]1NC(=O)[C@@H](NC(=O)[C@H](Cc2ccccc2)NC(=O)[C@H](CCC(=O)O)NC(=O)[C@H](CO)NC(C)=O)CSCSC[C@@H](C(=O)N[C@H](C(=O)N[C@@H](CCC(=O)O)C(=O)NCC(=O)N[C@@H](CCC(=O)O)C(=O)NCCOCCOCC(=O)NCCOCCOCC(=O)N[C@@H](CCCCNC(=O)CC[C@H](NC(=O)CNC(=O)CC[C@H](NC(=O)CCCCCCCCCCCCCCCCC(=O)O)C(=O)O)C(=O)O)C(N)=O)[C@@H](C)O)NC(=O)[C@H](CCCNC(=N)N)NC(=O)[C@H](Cc2c[nH]cn2)NC(=O)[C@H](CCC(=O)O)NC(=O)CN(C)C(=O)[C@H](Cc2c[nH]c3ccccc23)NC(=O)[C@H](CC(=O)O)NC(=O)[C@H](CCC(N)=O)NC(=O)[C@H](Cc2cn(C)c3ccccc23)NC1=O` [Compound 9] (Ac-SEFCI[Trp(1-Me)]QDW[Sar]EHRCTEGE[AEEA][AEEA]K([γGlu-Gly-γGlu-C18 diacid])-NH2; linker 4-14 via CH2) had a Kd at Human C3 of 17 nM. Further, the IC50 in experiment [1] was under 250 nM.
For `CC[C@H](C)[C@@H]1NC(=O)[C@@H](NC(=O)[C@H](Cc2ccccc2)NC(=O)[C@H](CCC(=O)O)NC(=O)[C@H](CO)NC(C)=O)CSCSC[C@@H](C(=O)N[C@H](C(=O)N[C@@H](CCC(=O)O)C(=O)NCCOCCOCC(=O)NCCOCCOCC(=O)N[C@@H](CCCCNC(=O)CC[C@H](NC(=O)CNC(=O)CC[C@H](NC(=O)CCCCCCCCCCCCCCCCC(=O)O)C(=O)O)C(=O)O)C(N)=O)[C@@H](C)O)NC(=O)[C@H](CCCNC(=N)N)NC(=O)[C@H](Cc2c[nH]cn2)NC(=O)[C@H](CCC(=O)O)NC(=O)CN(C)C(=O)[C@H](Cc2c[nH]c3ccccc23)NC(=O)[C@H](CC(=O)O)NC(=O)[C@H](CCC(N)=O)NC(=O)[C@H](Cc2cn(C)c3ccccc23)NC1=O` [Compound 10, Ac-SEF[C(1)]I[1-Me-Trp]QDW[Sar]EHR[C(1)]TE[Peg3][Peg3]-K([17-Carboxy-heptadecanoyl][yGlu]G[yGlu])-NH2] (Ac-SEFCI[Trp(1-Me)]QDW[Sar]EHRCTE[AEEA][AEEA]K([γGlu-Gly-γGlu-C18 diacid])-NH2; linker 4-14 via CH2), in that order: 19 nM and under 250 nM.
For `CC[C@H](C)[C@@H]1NC(=O)[C@@H](NC(=O)[C@H](Cc2ccccc2)NC(=O)[C@H](CCC(=O)O)NC(=O)[C@H](CO)NC(=O)CNC(=O)[C@H](CCC(=O)O)NC(=O)CCCCCCCCCCCCCCC(=O)O)CSCSC[C@@H](C(=O)N[C@H](C(=O)N[C@@H](CCC(=O)O)C(=O)NCC(=O)N[C@@H](CCC(=O)O)C(N)=O)[C@@H](C)O)NC(=O)[C@H](CCCNC(=N)N)NC(=O)[C@H](Cc2c[nH]cn2)NC(=O)[C@H](CCC(=O)O)NC(=O)CN(C)C(=O)[C@H](Cc2c[nH]c3ccccc23)NC(=O)[C@H](CC(=O)O)NC(=O)[C@H](CCC(N)=O)NC(=O)[C@H](Cc2cn(C)c3ccccc23)NC1=O` [Compound 19] ({C16 diacid}-EGSEFCI[Trp(1-Me)]QDW[Sar]EHRCTEGE-NH2; linker 6-16 via CH2), in that order: 19 nM and under 250 nM.
On Human C3, `CC[C@H](C)[C@@H]1NC(=O)[C@@H](NC(=O)[C@H](Cc2ccccc2)NC(=O)[C@H](CCC(=O)O)NC(=O)[C@H](CO)NC(=O)CNC(=O)[C@H](CCC(=O)O)NC(C)=O)CSCSC[C@@H](C(=O)N[C@H](C(=O)N[C@@H](CCC(=O)O)C(=O)NCC(=O)N[C@@H](CCC(=O)O)C(=O)NCCOCCOCC(=O)N[C@@H](CCC(=O)O)C(=O)N[C@@H](CO)C(=O)N[C@@H](CCCCNC(=O)CC[C@H](NC(=O)CCCCCCCCCCCCCCCCC(=O)O)C(=O)O)C(N)=O)[C@@H](C)O)NC(=O)[C@H](CCCNC(=N)N)NC(=O)[C@H](Cc2c[nH]cn2)NC(=O)[C@H](CCC(=O)O)NC(=O)CN(C)C(=O)[C@H](Cc2c[nH]c3ccccc23)NC(=O)[C@H](CC(=O)O)NC(=O)[C@H](CCC(N)=O)NC(=O)[C@H](Cc2cn(C)c3ccccc23)NC1=O` [Compound 20, Ac-EGSEF[C(1)]I[1-Me-Trp]QDW[Sar]EHR[C(1)]TEGE[Peg3]ES-K([17-Carboxy-heptadecanoyl][yGlu])-NH2] (Ac-EGSEFCI[Trp(1-Me)]QDW[Sar]EHRCTEGE[AEEA]ESK([γGlu-C18 diacid])-NH2; linker 6-16 via CH2) gave a Kd of 19 nM. Also, the IC50 in experiment [1] is under 250 nM.

B1: Compound 23 (peptide)
peptide: Ac-ESQVFCI[Trp(1-Me)]QDW[Sar]EHRCTEGE[AEEA][AEEA]K([γGlu-Gly-γGlu-C18 diacid])-NH2
modifications: bridge 6-16 via methylene thioacetal (-S-CH2-S-)
notes: Synthetic compstatin analogue; also called Comp No 23
Take B1: the “IC50 [nM], in vitro inhibition of hemolysis (classical complement pathway; human serum, sensitized sheep RBC)” value (“IC50 [nM], in vitro inhibition” for short) in experiment [2] was under 100 nM. The same molecule came in with a Kd in experiment [3] of 14 nM.

B2: Compound 24 (peptide)
peptide: Ac-ESEQVFCI[Trp(1-Me)]QDW[Sar]EHRCTEGE[AEEA][AEEA]K([γGlu-Gly-γGlu-C18 diacid])-NH2
modifications: bridge 7-17 via methylene thioacetal (-S-CH2-S-)
notes: Synthetic compstatin analogue; also called Comp No 24
As to B2, the “IC50 [nM], in vitro inhibition” value in experiment [2] is under 100 nM. In experiment [3], this molecule returned a Kd of 13 nM.

B3: Compound 25 (peptide)
peptide: Ac-SEQAFCI[Trp(1-Me)]QDW[Sar]EHRCTEGE[AEEA][AEEA]K([γGlu-Gly-γGlu-C18 diacid])-NH2
modifications: bridge 6-16 via methylene thioacetal (-S-CH2-S-)
notes: Synthetic compstatin analogue; also called Comp No 25; comp 25
As to B3, in experiment [2], the “IC50 [nM], in vitro inhibition” value is under 100 nM. This molecule registered an equilibrium dissociation constant (Kd) in experiment [3] of 9.1 nM.

B4: Compound 26 (peptide)
peptide: Ac-SKQEFCI[Trp(1-Me)]QDW[Sar]EHRCTEGE[AEEA][AEEA]K([γGlu-Gly-γGlu-C18 diacid])-NH2
modifications: bridge 6-16 via methylene thioacetal (-S-CH2-S-)
notes: Synthetic compstatin analogue; also called Comp No 26
Take B4: the “IC50 [nM], in vitro inhibition” value in experiment [2] was under 100 nM. The molecule further displayed a Kd in experiment [3] of 11 nM.

B5: Compound 2 (peptide)
peptide: Ac-SEFCI[Trp(1-Me)]QDWGEHRC[Sar]EGE[AEEA][AEEA]K([γGlu-Gly-γGlu-C18 diacid])-NH2
modifications: bridge 4-14 via methylene thioacetal (-S-CH2-S-)
notes: Synthetic compstatin analogue; also called Comp No 2
Turning to B5, the “IC50 [nM], in vitro inhibition” value in experiment [2] is under 500 nM. Moreover, the Kd in experiment [3] worked out at 54 nM.

B6: Compound 15 (peptide)
peptide: Ac-[dY]ICI[Trp(1-Me)]QDW[Sar]EHRCTEGE[AEEA]ESK([γGlu-C18 diacid])-NH2
modifications: bridge 3-13 via methylene thioacetal (-S-CH2-S-)
notes: Synthetic compstatin analogue; also called Comp No 15
In the case of B6, in experiment [2], the “IC50 [nM], in vitro inhibition” value is under 250 nM. In addition, in experiment [3], the affinity, expressed as Kd, was 16 nM.
